assay: yeast display, Sf9 membrane polyspecificity reagent, FACS + sequencing; frameworks hold sequencing errors
Method in brief: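 A nanobody's polyreactivity label depends on the gate it was sorted from. Yeast display cells were stained with 10% biotinylated, detergent-solubilized Sf9 membrane reagent for 1 hour at 4 °C, enriched on streptavidin microbeads and sorted by FACS. The low and high (top ~1%) gates were set on anti-HA fluorescence for expression and streptavidin fluorescence for reagent binding.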

| Sequence | polyreactivity (PSR sort gate) |
| --- | --- |
| QVQHVESGAGLVQAGGSLRLSCAASGIILLENAIGCYRQQPGKERELVSGISSGGNTNYADSVKGRFTISRDNAKNTVYLQINSLKPEDTAVYYCNTDWYLPRYVLPGYFSGTEDYWGKGTQVTVSS | low polyreactivity |
| QVQHVESGGALVQAGGSLRLSCAASGITFDYYVMGWYRTAPGKERELVAGISSGGSTYYADSVKGRFTISRDNAKNTVYLQMNSLKPEDTAVYYCNARRRRLVSVGYYYNYDYWGQGTQVTVSS | high polyreactivity |
| QVQHVESGGCLVQAGASLRLSCDASGSIFRRNAMGWYRQAPGKERQLVDAITSYGGRTYYADSVKGRFTISRDNAKNTVYFQMNSLKPVDTAVYYCASRYPWGWAMNYWGQGTQVTVSS | high polyreactivity |
| QVQHVESGGGIVQAGGSLRLICAASGFPYARYAMGWNRQAPGNERELVAAITSAGSTSYADSVKGRFTISRYNAKNTDYFHMNSLKPEDTAVYYCAAVQYNQAYHYWGQGTQVTVSS | high polyreactivity |
| QVQHVESGGGIVQAGGSLRLSCAASGITFDEYAMGWYRQAPGKEWELVATITWSGGSTYYADSVKGRFTISRVNAKNTVDLKMNSLKPEDSAVYYCAARDSGRYDDFGYWGQGTQVTVSS | low polyreactivity |
| QVQHVESGGGIVQAGGSLRLSCAASGSIFRNNTMGWYRQAPGKERELVAAISGRGTRTSYADSVKGRFTISRDNAKNTVYLQMNSLKPEDTAVYYCAARSWYLYYWGQGTQVTVSS | low polyreactivity |
| QVQHVESGGGIVQAGGSLRLSCAASGSTIVDNYMGWYRQAPGKERELVAVINSGGSTYYADSVKGRFTISRDNAKNTGYLQMNSLKPEDTAVYYCAADDIPYGSVYTSIGLDYWGQGTQVTVSS | low polyreactivity |
| QVQHVESGGGIVQAGGSLRLSCSASGSTFFYNTMGWYRHAPGKERELVAAISYRTGSTYYADSVKGRFTISRDNAKNSVYLQMNSLKTEDTAVYYCNARYPYRYGYWGQGTQVTVSS | high polyreactivity |
| QVQHVESGGGLFQAGGSHRLSCAASGRTFSKNAMGWYRQAPGKERELVAAINRGGTTKYADSVKGRFTISRDNAKNTVYLQMNSQKPEDTTVYYCAVDRQRAGYPKQYDSWGQGTQVTVSS | low polyreactivity |
| QVQHVESGGGLGQAGGILRLSCAGCGRTFVRYAMGWYRQAPGNERELVAAITRSASTYYADSVKGRFTISRDNAKKTVDLQMTSLKPEDTSVYYCNAVWSRYRDLDFWGQGTQVTVSS | high polyreactivity |
| QVQHVESGGGLVQAGASLRLSCAASGFTIRSYVRGWYRQAPGKEREIVAAISYRGGGTNYADSVKGRFTISRDNAKNTVYLHMNSLKPEDTAVYYCNARSGSSKSGYYYWGQGTQVTVSS | high polyreactivity |
| QVQHVESGGGLVQAGASLRLSCAASGLTFRSNAMGWYSQAPGKERELVAAISSSGGSTYYADSVKGRFTISRDNAQNTVYLQMNSLKPEDTAVYYCAAEDPGDQYDYWGQGTQVTVSS | high polyreactivity |
| QVQHVESGGGLVQAGGILRLICPDSGFTIRHKAMGWYRQAPGKEREFVAAISWYDGSTYADSVKGRFTISRDNAKYTVYIQLNCLKPEDTAVYFCNADYPSYRYFTGRHYWGQGTQVTVSS | low polyreactivity |
| QVQHVESGGGLVQAGGRLRLSCAASGSIFAWYARGWYIQAPGKEREVVADITHSGGSTYYADSLKGRFTISRDNAKNTVYLQMYSLKPEDTAVSYCVDYWYNDLQSGWEDDYWGQGTQVTVAS | low polyreactivity |
| QVQHVESGGGLVQAGGRLRLSCAASGSTFDYYVMGWYRQAPGKEREMVAAISQNAGSTYYADSVKGRFTISRDNAKNTVYLQMNSLKPEDTAVYYCAAPDYRNGVRYPLDYWGQGTQVTVSS | low polyreactivity |
| QVQHVESGGGLVQAGGSHRLSCAASGSTFTYYAMGWYRQAPGKERELVAAISRGGSTYYADSVKGRFTISRDNAKNTVYLKKYSLKPEDTAVYYCAAERGYKKWSRGYWGQGTLVTVSS | high polyreactivity |
| QVQHVESGGGLVQAGGSLLLSCAASGSIFEINAMGWYRQAPGKERELVADIRRGDSTNYADSVKGRFTNSRDNAKNTVYLQMNSLKPEDTAVYYCAARWRRSKYGVYPQRPYDYWGQGTQVTVSS | high polyreactivity |
| QVQHVESGGGLVQAGGSLLLSCAASGSTFGFYTMGWYRQAPGKERELVAAISWSTGRTYYADSVKGRFTISRDNAKNTVYLQMNSLKPEDTAVYYCNADGYPEQVYYYSAFQGMDYWGQGTQVTVSS | low polyreactivity |
| QVQHVESGGGLVQAGGSLRISCAASGFISTGNAMGWSRQAPGKERELVAAITTGGSTYYADSVKGRFTISRDNAKNTVYLQMNSLKPEDTAVYYCNAVYVWWDGWGLYYWGQGTQGTVSS | low polyreactivity |
| QVQHVESGGGLVQAGGSLRLICAASGYIFRGYVMGWYRQAPGKERELVAAITSRGDSTYYADSVKGRFTISRDNAKNTVYLPMNSLKPEDTAVYYCAARGGVLKGYYYWGQGTQVTVSS | high polyreactivity |
| QVQHVESGGGLVQAGGSLRLRCAASGSIFYRYVMGWYRQAHGKERELVAAISVSGGTTYYADSVKGRITISRDNAKNTVYLQMNRLKPEDTAVYYCAAEDSLTEDPAHDYWGQGTQVTVSS | low polyreactivity |
| QVQHVESGGGLVQAGGSLRLSCAASGFIFAANAMGWYRQGPGKERELVAAINYRGSSTYYADSVKGRFTISRDNAKNTVNLQMNSLKPEDTAVYYCAARSGAQRGGGYWGQGTQVTVSS | high polyreactivity |

| Sequence | polyreactivity (PSR sort gate) |
| --- | --- |
| QVQHVESGGGLVQAGGSLRLSCAASGFIFPYYAMGWYRQAPGKERELVAAINSGTSTYYADSVKGRFTISRDNAKNTVYLQMNSLKPEDTAVYYCAAAYPLWYEYDYWGQGTQVTVSS | low polyreactivity |
| QVQHVESGGGLVQAGGSLRLSCAASGFIFRSYAMGWFRQAPGKERELVAAISNGVITNYADSVKGRFTISRDNSKNTVYLQRNSLKPEDTAVYYCDADYNSQDDYWGQGTQVTVSS | low polyreactivity |
| QVQHVESGGGLVQAGGSLRLSCAASGFIFSWNAMGWYRQAPGKERELVAGISWSGGSTYYADSVKGRFTISRDNAKNTVYLQMNRLKPEDTAVYYCAKEPSVGTGGVYRYGRGDYWGQGTQVTVSS | low polyreactivity |
| QVQHVESGGGLVQAGGSLRLSCAASGFTFATYAMGWYRQAQGKERELVAAISRGTSTYYADSVKGRFTISRVNAKNTVYLQMNSLIPDDTAVYYCAATSSFRYDYWGKGTQVTVSS | low polyreactivity |
| QVQHVESGGGLVQAGGSLRLSCAASGFTFGYYAMGWYRQAPGKERELVAAISGSGGGTYYADSVKGRFTISRDNAKNTVYLQMNSLKPEDTAVYYCNTGRYDRKYDYWGQGTQVTVSS | high polyreactivity |
| QVQHVESGGGLVQAGGSLRLSCAASGFTFPGYAMGWYRQAPGKERELVAAISSSGGRTNYADSVKGRFTISRDNAKNTVYLQMNSLKPEDTAVYYCKAVRTVRSYLQLTRHLVYWGQGTQVTVSS | high polyreactivity |
| QVQHVESGGGLVQAGGSLRLSCAASGFTFRHNAMGWYRQAPGKERELVAAMTKSGRRTYDADSVKGRFTISRDNAKNTVYLQMNSLKPEDTAVYYCKKDLRQSYANVDYWGQGTQVTVSS | high polyreactivity |
| QVQHVESGGGLVQAGGSLRLSCAASGFTFRRYAMGWYRQAPGKERELVAAISINGGSTYYADSVKGRFTISRDNAMNTVYLQMNSLKPEDTAVYYCNKGSVRGEYDYWGQGTLVTVSS | high polyreactivity |
| QVQHVESGGGLVQAGGSLRLSCAASGFTFSVYVLGWSRQAPGKERELVAAITWSGGSTYYADSEQGRITISRDHAKNTVYLQMNSQKPQETAVYYCAAQAFSPHYGWFYYWGQGTQVTVSS | high polyreactivity |
| QVQHVESGGGLVQAGGSLRLSCAASGFTSTVYAMGCYRQAPGKERELVASITWSGGRTYYADSVKGRFTISRDNAKNTVYFQMNSLKPEDTAVYYCAARTYSYGSILKYYYWGQGSQVTVSS | high polyreactivity |
| QVQHVESGGGLVQAGGSLRLSCAASGGIFYYNTMGWYRQAPGKERELVAAITGGGRTNYADSVKGRFTISRDNAKNTVYLQMNSLKPEDTAVYYCNAVYWRTRMDYWGQGTQVTVSS | high polyreactivity |
| QVQHVESGGGLVQAGGSLRLSCAASGGTFYGYAMGCYRQAPGKERELVAVITYSGGSTYYADSVKGRFTISRDNAKNTVYLQMYSLKPEDTAVYYCAADVKYGYDWGQGTQVTVSS | high polyreactivity |
| QVQHVESGGGLVQAGGSLRLSCAASGIIFGHYDMGWYRQAPGKERELVAAITFTGDSTYYADSVKGRFTISRDNAKITVYLQMNSLKPEDTAVYFCAADTPVPWGSWGYDYWGQGTQVTVSS | low polyreactivity |
| QVQHVESGGGLVQAGGSLRLSCAASGITFNEYAMGWYRQAPGKEREFVAAISSSGARTYYADSVKGRFTISRDNAKNTVYLQMNSLKPEDTAVYYCAAVYRSWTSYNGRNYWGQGTQVTVSS | high polyreactivity |
| QVQHVESGGGLVQAGGSLRLSCAASGITFSSYAMGWYRQAPGKERELVAAISSGGSTYYADSVKGRFTISRDNAKNTVYFQMNSLKPEDTAVYYCAAELATYVPNKWYYRYTGYYYWGQGTQVTVSS | low polyreactivity |
| QVQHVESGGGLVQAGGSLRLSCAASGIYYNAMGWYRQAPGKERELVAVITYSGGSTYYADSVKGRFTISRDNAKNTVYLQMNSLKPEETAVYYCAADDYYVALPGLYDYWGQGTQVTVSS | low polyreactivity |
| QVQHVESGGGLVQAGGSLRLSCAASGLTFSTYDMGWYRQAPGKERDLVAAITYSGGSTYYADSVKGRFTISRDHAKNTVYLQMNSLKPEDTAVYYSATTWYFVASWYVAIYDYWGQGTQVTVST | low polyreactivity |
| QVQHVESGGGLVQAGGSLRLSCAASGLTIWYYAIGWYRQAPGKEREFVAAITSRGGDTYYADSVKGRFTISRDNAKNTVYLQLNSLKPEDTGVYYCAVRPRYYGTYRYYYWGQGTQVTVSS | high polyreactivity |
| QVQHVESGGGLVQAGGSLRLSCAASGRIFGTYAMGWYRPAPGKERELVAAISWRGGSTYYADSVKGRFTISRDNAKNTVYLQMNSLKPEDTAVYYCAATWWSPSRGTKGDYWGQGTQVTVSS | low polyreactivity |
| QVQHVESGGGLVQAGGSLRLSCAASGRIFQRNTMGWYRQAPGKERELVARINYSGGSTYYADSVKGRFTISRDNAKTTVYLQLNSLKPEDTAVYYCAARVWTWSIYYPAGLSSYDYWGQGTQVTVSS | low polyreactivity |
| QVQHVESGGGLVQAGGSLRLSCAASGRIFSFYVMGWYRQAPGKERELVAVIRKNGGSTYYADSVKGRFTISRDNAKNTVYLQMNSLKPEDTAVYYCTARSVPRYGYWGLGTQVTVSS | high polyreactivity |

Source: the nanobody polyreactivity screen of Harvey et al. (2022)
